Usually kon stands for the rate constant with which the complex forms. High values mean fast association, low ones slow association.

The source of these data is paper PMC6502846.

In test [1] the target is C5b-8 initiator complex, comprised of C5b6 in complex with C7 and C8 (human) (UniProt P01031). As to the kind of experiment: rapid atomic force microscopy imaging; supported bilayers of E. coli lipid extract on mica; proteins injected one after the other in situ without wash steps, 80 nM C5b6, C7 and C8, 1.4 µM C9; 30 °C; 6.5 s per frame; 20 mM HEPES, 120 mM NaCl, pH 7.4; chamber passivated with BSA.

The target in test [2] is C5b-8(C9)n (1 ≤ n < 18) (human) (UniProt P01031). Described as above.

Chain of C9 (P02748 22-559): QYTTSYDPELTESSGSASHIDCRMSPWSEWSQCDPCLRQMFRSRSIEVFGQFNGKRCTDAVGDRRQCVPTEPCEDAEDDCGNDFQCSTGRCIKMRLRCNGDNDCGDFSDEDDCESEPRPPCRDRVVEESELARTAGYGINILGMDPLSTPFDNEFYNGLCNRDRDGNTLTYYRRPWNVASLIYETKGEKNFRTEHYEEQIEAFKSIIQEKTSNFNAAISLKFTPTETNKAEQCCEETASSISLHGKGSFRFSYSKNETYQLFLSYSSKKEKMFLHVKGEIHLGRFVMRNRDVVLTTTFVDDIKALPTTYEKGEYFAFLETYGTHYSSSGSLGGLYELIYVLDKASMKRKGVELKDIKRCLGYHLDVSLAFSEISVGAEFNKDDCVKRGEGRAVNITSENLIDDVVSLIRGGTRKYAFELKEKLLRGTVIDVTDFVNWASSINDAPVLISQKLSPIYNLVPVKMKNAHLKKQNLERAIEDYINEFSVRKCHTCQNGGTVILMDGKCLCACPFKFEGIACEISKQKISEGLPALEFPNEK

For the substance “C9 (from UniProt P02748 22-559) (natural protein)”, in test [1], the characteristic initiation time τ init amounted to 912 s and the kon worked out at 780 M⁻¹ s⁻¹. In test [2], this substance came in with an on-rate constant (kon) of 108000 M⁻¹ s⁻¹; a τ olig, time to add 17 copies of C9 after the initiation event of 112 s; a τ+, average time per addition of each of the remaining 17 C9 subunits of 6.6 s.
